Measured values reported in patent US20150011462A1 (Novo Nordisk, published 2015).
Numbered stars: 1 amine (or outer) side, 2 acyl side, 3 side chain; on linkers, the order of the positions; unused ones are H or OH. Square brackets hold non-standard residues; d marks the D form. Side chains are listed from the residue outwards. Ends that are not written are not given here. * marks the point of attachment. TtdSuc = 4-[3-[2-[2-(3-aminopropoxy)ethoxy]ethoxy]propylamino]-4-oxobutanoyl; C20 diacid = O=C(O)CCCCCCCCCCCCCCCCCCC(=O)*; C19 diacid = O=C(O)CCCCCCCCCCCCCCCCCC(=O)*; γGlu = O=C(O)[C@H](CCC(=O)[*:2])N[*:1]; Desaminohistidyl = O=C(CCc1c[nH]cn1)*; εLys = N[C@@H](CCCCN[*:1])C(=O)[*:2]; Trx = NC[C@H]1CC[C@H](C(=O)O)CC1; PEG4 = NCCOCCOCCOCCOCCC(=O)O; AEEA = NCCOCCOCC(=O)O; Aib = CC(C)(N)C(=O)O; Inp = O=C(O)C1CCNCC1

Tests used:
human GLP-1 receptor [1] = molecular target: T1, human GLP-1 receptor (human, UniProt P43220 24-463); test: competitive binding (SPA): displacement of 125I-GLP-1(7-36)NH2 from BHK cell membranes with human GLP-1 receptor; high HSA (2.0% final)
T1 construct: whole, on cells
Procedure: (§1) For the receptor binding assay in the presence of low HSA (0.005%) 50 μl of the assay buffer was added to each well of an assay plate. […] For the receptor binding assay in the presence of high HSA (2%) 50 μl of the 8% albumin stock was added to each well of an assay plate. […] Cell membrane aliquots were thawed and diluted to their working concentration. Fifty μl were added to each well in the assay plate. […] WGA SPA beads were suspended in assay buffer at 20 mg/ml. The suspension was diluted to 10 mg/ml in assay buffer just prior to addition to the assay plate. Fifty μl were added to each well in the assay plate. […] A 25 μl aliquot was reserved for measuring total counts/well. […] The assay plate was incubated for 2 h at 30° C. […] The assay plate was centrifuged for 10 min. […] The assay plate was read in a Packard TopCount NXT instrument.

human GLP-1 receptor [2] = molecular target: T1, human GLP-1 receptor; test: competitive binding (SPA): displacement of 125I-GLP-1(7-36)NH2 from BHK cell membranes with human GLP-1 receptor; low HSA (max. 0.001% final)
Procedure: as §1

human GLP-1 receptor [3] = molecular target: T1, human GLP-1 receptor; test: cell-based or functional assay

Binder	IC50 (human GLP-1 receptor [1]) [nM]	IC50 (human GLP-1 receptor [2]) [nM]	EC50 (pM), in vitro potency, CRE luciferase reporter gene assay in BHK cells expressing the human GLP-1 receptor (human GLP-1 receptor [3]) [pM]
H[Aib]EGTFTSDVSSYLEEQAAREFIAWLVRGRGK([AEEA-AEEA-AEEA-AEEA-εLys-εLys-C20 diacid])GGSK([AEEA-AEEA-AEEA-AEEA-εLys-εLys-C20 diacid]) (Double-acylated, C-terminally extended GLP-1 analogue made by SPPS; also called 25)	38	0.22	10
H[Aib]EGTFTSDVSSYLEEQAAREFIAWLVRGRGK([AEEA-AEEA-γGlu-Trx-C19 diacid])GGSK([AEEA-AEEA-γGlu-Trx-C19 diacid]) (Double-acylated, C-terminally extended GLP-1 analogue made by SPPS; also called 26)	202	0.88	13
H[Aib]EGTFTSDVSSYLEEQAAREFIAWLVRGRGK([AEEA-AEEA-AEEA-AEEA-γGlu-Trx-C20 diacid])GGSK([AEEA-AEEA-AEEA-AEEA-γGlu-Trx-C20 diacid]) (Double-acylated, C-terminally extended GLP-1 analogue made by SPPS; also called 17)	99	1.8	12
H[Aib]EGTFTSDVSSYLEEQAAREFIAWLVRGRGK([AEEA-AEEA-AEEA-AEEA-AEEA-εLys-εLys-C20 diacid])GGSK([AEEA-AEEA-AEEA-AEEA-AEEA-εLys-εLys-C20 diacid]) (Double-acylated, C-terminally extended GLP-1 analogue made by SPPS; also called 27)	30	0.08	4.4
[Desaminohistidyl][Aib]EGTFTSDVSSYLEEQAAREFIAWLVRGRGK([AEEA-AEEA-AEEA-AEEA-γGlu-Trx-C20 diacid])GGSK([AEEA-AEEA-AEEA-AEEA-γGlu-Trx-C20 diacid]) (Double-acylated, C-terminally extended GLP-1 analogue made by SPPS; also called 18)	219	2.3	13
H[Aib]EGTFTSDVSSYLEEQAAREFIAWLVRGRGK([AEEA-AEEA-AEEA-AEEA-γGlu-C20 diacid])GGSK([AEEA-AEEA-AEEA-AEEA-γGlu-C20 diacid]) (Double-acylated, C-terminally extended GLP-1 analogue made by SPPS; also called 19)	142	2.4	6.2
H[Aib]EGTFTSDVSSYLEEQAAREFIAWLVRGRGK([AEEA-AEEA-AEEA-AEEA-AEEA-AEEA-γGlu-Trx-C20 diacid])GGSK([AEEA-AEEA-AEEA-AEEA-AEEA-AEEA-γGlu-Trx-C20 diacid]) (Double-acylated, C-terminally extended GLP-1 analogue made by SPPS; also called 24)	84	0.67	7
HXEGTFTSDVSSYLEEQAAREFIAWLVRGRGKGGSK (Aib at position 8; N-epsilon of Lys38 and of Lys42 each acylated with C20 diacid (19-carboxynonadecanoyl)-gGlu-TotaGlyc (GLP-1(7-37) numbering = sequence-listing position + 6), Double-acylated, C-terminally extended GLP-1 analogue made by SPPS; The printed name has 'AAib8' (typographic slip for Aib8); also called 22)	194	0.82	10
HXEGTFTSDVSSYLEEQAAREFIAWLVRGRGKGGSK (Aib at position 8; N-epsilon of Lys38 and of Lys42 each acylated with C20 diacid (19-carboxynonadecanoyl)-Trx-gGlu-DooaSuc (GLP-1(7-37) numbering = sequence-listing position + 6), Double-acylated, C-terminally extended GLP-1 analogue made by SPPS; also called 23)	201	1.4	22
H[Aib]EGTFTSDVSSYLEEQAAREFIAWLVRGRGK([AEEA-AEEA-AEEA-AEEA-AEEA-AEEA-εLys-εLys-C20 diacid])GGSK([AEEA-AEEA-AEEA-AEEA-AEEA-AEEA-εLys-εLys-C20 diacid]) (Double-acylated, C-terminally extended GLP-1 analogue made by SPPS; also called 28)	30	0.05	3.4
H[Aib]EGTFTSDVSSYLEEQAAREFIAWLVRGRGK([PEG4-γGlu-Trx-C20 diacid])GGSK([PEG4-γGlu-Trx-C20 diacid]) (Double-acylated, C-terminally extended GLP-1 analogue made by SPPS; also called 10)	123	1.3	27
H[Aib]EGTFTSDVSSYLEEQAAREFIAWLVRGRGK([TtdSuc-γGlu-Inp-C20 diacid])GGSK([TtdSuc-γGlu-Inp-C20 diacid]) (Double-acylated, C-terminally extended GLP-1 analogue made by SPPS; also called 21)	177	1.3	19
H[Aib]EGTFTSDVSSYLEEQAAREFIAWLVRGRGK([AEEA-AEEA-γGlu-Trx-C20 diacid])GGSK([AEEA-AEEA-γGlu-Trx-C20 diacid]) (Double-acylated, C-terminally extended GLP-1 analogue made by SPPS)	185	1.2	43
H[Aib]EGTFTSDVSSYLEEQAAREFIAWLVRGK([AEEA-AEEA-γGlu-Trx-C20 diacid])GEGPAK([AEEA-AEEA-γGlu-Trx-C20 diacid]) (Double-acylated, C-terminally extended GLP-1 analogue made by SPPS; also called 16)	602	1.4	25
H[Aib]EGTFTSDVSSYLEEQAAREFIAWLVRGRGK([AEEA-AEEA-γGlu-Trx-C20 diacid])PEGK([AEEA-AEEA-γGlu-Trx-C20 diacid]) (Double-acylated, C-terminally extended GLP-1 analogue made by SPPS; also called 12)	212	1.4	24
H[Aib]EGTFTSDVSSYLEEQAAREFIAWLVRGRGK([AEEA-AEEA-γGlu-Trx-C20 diacid])SPEK([AEEA-AEEA-γGlu-Trx-C20 diacid]) (Double-acylated, C-terminally extended GLP-1 analogue made by SPPS; also called 11)	116	1.5	27
H[Aib]EGTFTSDVSSYLEEQAAREFIAK([AEEA-AEEA-γGlu-Trx-C20 diacid])LVRGRGGGGSK([AEEA-AEEA-γGlu-Trx-C20 diacid]) (Double-acylated, C-terminally extended GLP-1 analogue made by SPPS)	≥ 1000	1.4	36
H[Aib]EGTFTSDVSSYLEEQAARKFIAWLVRGRGGGGSK (not fully specified (residues 21, 36), Double-acylated, C-terminally extended GLP-1 analogue made by SPPS; The printed name has a typographic slip ('R2S)' for '[(2S)'))	383	0.43	260
H[Aib]EGTFTSDVSSYLEEQAARK([AEEA-AEEA-γGlu-Trx-C20 diacid])FIAWLVRGRGGGGSK([AEEA-AEEA-γGlu-Trx-C20 diacid]) (Double-acylated, C-terminally extended GLP-1 analogue made by SPPS)	275	0.75	55
H[Aib]EGTFTSDVSSYLEEK([AEEA-AEEA-γGlu-Trx-C20 diacid])AAREFIAWLVRGRGGGGSK([AEEA-AEEA-γGlu-Trx-C20 diacid]) (Double-acylated, C-terminally extended GLP-1 analogue made by SPPS)	113	0.85	74
H[Aib]EGTFTSDVSSYLEEQAAREFIAWLVRGRGK([AEEA-AEEA-γGlu-Trx-C20 diacid])SAEK([AEEA-AEEA-γGlu-Trx-C20 diacid]) (Double-acylated, C-terminally extended GLP-1 analogue made by SPPS; also called 13)	160	1.4	24
H[Aib]EGTFTSDVSK([AEEA-AEEA-γGlu-Trx-C20 diacid])YLEEQAAREFIAWLVRGRGGGGSK([AEEA-AEEA-γGlu-Trx-C20 diacid]) (Double-acylated, C-terminally extended GLP-1 analogue made by SPPS)	≥ 1000	1	93
H[Aib]EGTFTSDVSSYLEEQAAREFIAWLVRGK([AEEA-AEEA-γGlu-Trx-C20 diacid])GGGGSK([AEEA-AEEA-γGlu-Trx-C20 diacid]) (Double-acylated, C-terminally extended GLP-1 analogue made by SPPS)	101	1.1	61
[Desaminohistidyl][Aib]EGTFTSDVSSYLEEQAAREFIAWLVRGRGK([AEEA-AEEA-AEEA-AEEA-γGlu-C20 diacid])GGSK([AEEA-AEEA-AEEA-AEEA-γGlu-C20 diacid]) (Double-acylated, C-terminally extended GLP-1 analogue made by SPPS; also called 20)	270	4.1	8.4
H[Aib]EGTFTSDVSSYLEEQAAREFIAWLVRGK([AEEA-AEEA-γGlu-Trx-C20 diacid])GAESPK([AEEA-AEEA-γGlu-Trx-C20 diacid]) (Double-acylated, C-terminally extended GLP-1 analogue made by SPPS; also called 14)	530	1.5	22
H[Aib]EGTFTSDVSSYLEEQAAREFIAWLVRGK([AEEA-AEEA-γGlu-Trx-C20 diacid])GPASEK([AEEA-AEEA-γGlu-Trx-C20 diacid]) (Double-acylated, C-terminally extended GLP-1 analogue made by SPPS; also called 15)	928	1.6	20
